From patent US20020004485A1

Legend:
[1] = biological target: MC receptor endogenous to Xenopus laevis melanophores (Xenopus laevis); assay: cell-based or functional assay
[2] = biological target: atypical MC receptor of Cos-7 cells; assay: cell-based or functional assay
[3] = biological target: human MCR-1 receptor (human) (UniProt Q01726); assay: cell-based or functional assay
[4] = biological target: human MCR-3 receptor (human) (UniProt P41968); assay: cell-based or functional assay
[5] = biological target: human MCR-4 receptor (human) (UniProt P32245); assay: cell-based or functional assay
human MCR-4 receptor (human), sequence (P32245 whole entry): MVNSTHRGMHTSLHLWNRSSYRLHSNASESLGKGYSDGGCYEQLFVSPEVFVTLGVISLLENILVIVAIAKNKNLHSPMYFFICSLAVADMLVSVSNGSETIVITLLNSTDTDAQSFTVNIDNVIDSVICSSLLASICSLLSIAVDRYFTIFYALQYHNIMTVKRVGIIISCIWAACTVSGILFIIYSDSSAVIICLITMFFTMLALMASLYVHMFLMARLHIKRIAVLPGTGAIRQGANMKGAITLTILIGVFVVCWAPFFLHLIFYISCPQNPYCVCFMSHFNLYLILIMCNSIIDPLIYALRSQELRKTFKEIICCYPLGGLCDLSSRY

[6] = biological target: atypical MC receptor of Cos-7 cells; assay: estimated from the shift of the α-MSH cAMP curve in Cos-7 cells (functional)
[7] = biological target: MC receptor endogenous to Xenopus laevis melanophores (Xenopus laevis); assay: Schild plot; antagonism of α-MSH pigment dispersion in Xenopus melanophores (functional)
[8] = biological target: ACTH (MCR-2) receptor endogenous to murine Y1 adrenocortical cells (murine) (UniProt Q64326); assay: cell-based or functional assay
ACTH (MCR-2) receptor endogenous to murine Y1 adrenocortical cells (murine), sequence (Q64326 whole entry): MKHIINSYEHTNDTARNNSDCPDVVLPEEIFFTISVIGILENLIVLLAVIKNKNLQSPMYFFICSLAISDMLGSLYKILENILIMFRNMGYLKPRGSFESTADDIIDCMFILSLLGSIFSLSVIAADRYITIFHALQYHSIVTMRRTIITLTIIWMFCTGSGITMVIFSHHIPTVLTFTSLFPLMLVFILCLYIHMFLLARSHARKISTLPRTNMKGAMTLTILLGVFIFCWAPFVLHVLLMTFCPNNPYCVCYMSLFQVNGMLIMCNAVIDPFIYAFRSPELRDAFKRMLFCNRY

human MCR-1 receptor (human), sequence (Q01726 whole entry): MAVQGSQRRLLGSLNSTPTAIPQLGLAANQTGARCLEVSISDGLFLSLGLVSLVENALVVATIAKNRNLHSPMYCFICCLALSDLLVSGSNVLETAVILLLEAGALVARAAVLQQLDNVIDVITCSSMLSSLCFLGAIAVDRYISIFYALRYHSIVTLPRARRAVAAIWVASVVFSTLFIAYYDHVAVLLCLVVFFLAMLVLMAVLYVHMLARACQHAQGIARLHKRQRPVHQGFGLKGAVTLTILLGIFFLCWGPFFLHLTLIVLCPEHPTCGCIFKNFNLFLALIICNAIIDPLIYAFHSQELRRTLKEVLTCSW
human MCR-3 receptor (human), sequence (P41968 whole entry): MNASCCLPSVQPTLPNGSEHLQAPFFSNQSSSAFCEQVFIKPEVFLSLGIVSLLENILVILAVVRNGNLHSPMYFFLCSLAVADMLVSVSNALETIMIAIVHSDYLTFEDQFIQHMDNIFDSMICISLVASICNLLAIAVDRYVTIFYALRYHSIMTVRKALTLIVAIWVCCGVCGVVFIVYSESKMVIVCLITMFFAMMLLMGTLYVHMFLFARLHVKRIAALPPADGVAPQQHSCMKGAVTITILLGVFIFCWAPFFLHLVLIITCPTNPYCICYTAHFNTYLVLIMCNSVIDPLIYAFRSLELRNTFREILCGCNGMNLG

Q: For urocortin (peptide), which IC50 in the frog MCR assay [1] is on record?
A: > 10000 nM

Q: For “dynorphin A(1-13)-NH2 (from UniProt P01213 207-219) (peptide)”, which IC50 nM in Frog Melanophore Assay [1] is on record?
A: 145 nM

Q: And the fold shift of the α-MSH EC50 by 30 µM dynorphin A(1-13)-NH2 [2]?
A: 50 fold

Q: And the EC50 of α-MSH in the presence of 30 µM dynorphin A(1-13)-NH2, MCR-1 [3]?
A: 2100 nM

Q: And the EC50 of α-MSH in the presence of 30 µM dynorphin A(1-13)-NH2, MCR-3 [4]?
A: 1600 nM

Q: And the EC50 of α-MSH in the presence of 30 µM dynorphin A(1-13)-NH2, MCR-4 [5]?
A: 2000 nM

Q: And the Kd [6]?
A: 1000 nM

Q: What about the Ki [7] of the same substance?
A: 71 nM

Q: How did the IC50 in the frog MCR assay [1] turn out when “neurotensin(8-13) analog, D-Arg-Arg-Pro-Trp-Ile-Leu (peptide)” was run?
A: > 10000 nM

Q: Which Ki [7] does the source give for “p-anisoyl-[D-Arg^6,9, D-Lys^11, D-Leu^12] dynorphin A(6-12)-NH2 (peptide)” here?
A: 12 nM

Q: And the pKi [7]?
A: 7.91

Q: For “dynorphin A(2-13) (from UniProt P01213 176-187) (peptide)”, which EC50 of ACTH-(1-24) in the presence of 30 µM dynorphin A(2-13) [8] is on record?
A: 28 nM

Q: And the fold shift to the right of the concentration-response curve of ACTH-(1-24) at 30 µM [8]?
A: 15 fold

Q: And the dose ratio of α-MSH dose-response curves with and without 30 µM dynorphin A(2-13), MCR-1 [3]?
A: 250

Q: And the dose ratio of α-MSH dose-response curves with and without 30 µM dynorphin A(2-13), MCR-3 [4]?
A: 128

Q: And the dose ratio of α-MSH dose-response curves with and without 30 µM dynorphin A(2-13), MCR-4 [5]?
A: 147

Q: What about the Ki [7] of the same substance?
A: 79 nM
